The values that follow are results of earlier work, collected in PMC7072806.

Where two headings read alike, the source gives them in different places.

In series [1] the target is CCR5 (Homo sapiens) (UniProt P51681). The experiment in a line: SPR.
Series [2] shares this target.

UniProt P51681, sequence (P51681 whole entry): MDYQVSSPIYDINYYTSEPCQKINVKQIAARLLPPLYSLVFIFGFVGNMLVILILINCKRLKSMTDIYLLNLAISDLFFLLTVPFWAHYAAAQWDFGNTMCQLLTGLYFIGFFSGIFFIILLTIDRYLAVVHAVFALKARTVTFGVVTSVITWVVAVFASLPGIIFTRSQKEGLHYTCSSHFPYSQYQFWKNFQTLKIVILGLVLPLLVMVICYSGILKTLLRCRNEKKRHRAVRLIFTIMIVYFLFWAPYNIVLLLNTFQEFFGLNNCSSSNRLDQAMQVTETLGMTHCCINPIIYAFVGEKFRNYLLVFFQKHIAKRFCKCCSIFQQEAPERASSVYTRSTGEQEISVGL

For eNAMPT (from UniProt P43490), the Kd with CCR5 (Homo sapiens) [1] was 5000 nM. For RANTES (from UniProt P13501), the Kd in the series with CCR5 (Homo sapiens) [2] was 0.4 nM.
